Assay results taken from CN116472284A (UNIV CALIFORNIA, dated 2023).

What was measured:
[1] = target: T1, SARS-CoV-2 spike receptor binding domain (RBD) (SARS-CoV-2, UniProt P0DTC2 328-533)
[2] = target: T1, SARS-CoV-2 spike receptor binding …; assay: SPR, biotinylated RBD on CAP chip

B1: Nb6 (VHH)
VHH: QVQLVESGGGLVQAGGSLRLSCAASGIIFGRNAMGWYRQAPGKERELVAGITRRGSITYYADSVKGRFTISRDNAKNTVYLQMNSLKPEDTAVYYCAADPASPAPGDYWGQGTQVTVSS
notes: also called AeroNab6; NbCOV6
EC50 [1]: 190 nM
Kd [2]: 41 nM
